Target: T1, GST-DDX6 (wild type), recombinant (UniProt P54823 1-483)
T1 construct: DDX6 (DEAD-box helicase 6); Cloned in pGEX-KG; also called wild-type DDX6; source: E. coli BL21(DE3), purified (Glutathione Sepharose 4B)
T1 sequence (looked up): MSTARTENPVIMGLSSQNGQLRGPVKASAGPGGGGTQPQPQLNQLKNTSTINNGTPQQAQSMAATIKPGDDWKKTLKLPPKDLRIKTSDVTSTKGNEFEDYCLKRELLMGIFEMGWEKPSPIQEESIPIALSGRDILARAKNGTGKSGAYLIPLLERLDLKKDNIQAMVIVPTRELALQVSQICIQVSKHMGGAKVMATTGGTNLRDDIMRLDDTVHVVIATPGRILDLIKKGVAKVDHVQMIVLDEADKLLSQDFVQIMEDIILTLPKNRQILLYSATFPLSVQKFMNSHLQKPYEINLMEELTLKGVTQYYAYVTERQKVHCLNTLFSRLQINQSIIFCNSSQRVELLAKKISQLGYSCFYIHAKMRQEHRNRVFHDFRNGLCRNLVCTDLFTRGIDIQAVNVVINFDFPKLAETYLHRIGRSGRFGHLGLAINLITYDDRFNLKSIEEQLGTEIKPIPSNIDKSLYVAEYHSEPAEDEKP
Test: BLI; BLItz; 6xHis-MBP-DDX3X^166-590 loaded on Ni-NTA biosensors; GST-DDX6 or GST-DDX6^Mut6 at 125, 250 and 500 nM; 20 mM Tris-HCl pH 8.0, 150 mM KCl, 0.02% Tween 20, DTT, 1 mg/ml BSA; global fit to a 1:1 model
Details: both partners purified

- Kd: 389 nM
B1: 6xHis-MBP-DDX3X^166-590 (domain or fragment, UniProt Q62167 166-590, looked up)
chain: IPVEATGNNCPPHIESFSDVEMGEIIMGNIELTRYTRPTPVQKHAIPIIKEKRDLMACAQTGSGKTAAFLLPILSQIYADGPGEALRAMKENGRYGRRKQYPISLVLAPTRELAVQIYEEARKFSYRSRVRPCVVYGGAEIGQQIRDLERGCHLLVATPGRLVDMMERGKIGLDFCKYLVLDEADRMLDMGFEPQIRRIVEQDTMPPKGVRHTMMFSATFPKEIQMLARDFLDEYIFLAVGRVGSTSENITQKVVWVEEIDKRSFLLDLLNATGKDSLTLVFVETKKGADSLEDFLYHEGYACTSIHGDRSQRDREEALHQFRSGKSPILVATAVAARGLDISNVKHVINFDLPSDIEEYVHRIGRTGRVGNLGLATSFFNERNINITKDLLDLLVEAKQEVPSWLENMAFEHHYKGSSRGRSKS
notes: Cloned in pMCSG9; source: E. coli BL21(DE3), purified (Ni-NTA)
